Several values for one entry are separate records, joined by “and”; a condition that tells them apart may be missing. Identical values can stand only once. Where no end group is shown, it is not given here.
Legend:
[1] = test system: CC[C@H](C)[C@H](N)C(=O)N[C@@H](Cc1c[nH]c2ccccc12)C(=O)NCC(=O)N[C@H](C(=O)NCC(=O)N[C@@H](CS)C(=O)N[C@@H](CC(N)=O)C(=O)N1CCC[C@H]1C(=O)N[C@@H](Cc1c[nH]c2ccccc12)C(=O)N[C@H](C(=O)N[C@@H](C)C(=O)N[C@@H](CCC(=O)O)C(=O)N[C@@H](Cc1c[nH]cn1)C(=O)N[C@H](C(=O)N[C@@H](CC(=O)O)C(=O)N[C@@H](CCC(N)=O)C(=O)N[C@H](C(=O)N[C@@H](CC(C)C)C(=O)N[C@@H](C)C(=O)N[C@@H](CO)C(=O)NCC(=O)N[C@@H](CC(N)=O)C(=O)N[C@@H](CC(=O)O)C(=O)N[C@H](C(=O)N[C@@H](CS)C(=O)O)[C@@H](C)CC)[C@@H](C)O)C(C)C)[C@@H](C)O)[C@@H](C)CC; assay: purified protein, by the assay type; conditions: 50 mM NaCl, 10 mM DTT, duplicate
[2] = target: GmPOPB–tail complex (GmPOPB-S577A pre-mixed with the peptide tail) (Galerina marginata) (UniProt H2E7Q8); assay: stopped-flow tryptophan fluorescence; global fitting by numerical integration (KinTek Global Kinetic Explorer) of stopped-flow binding and quenched-flow turnover data together; 20 °C; k1/k-1 and k5/k-5 linked by the ITC Kd values; k4 and k-4 fixed at best-fit values
[3] = target: GmPOPB–tail complex (GmPOPB-S577A pre-mixed with the peptide tail) (Galerina marginata) (UniProt H2E7Q8); assay: stopped-flow tryptophan fluorescence; analytical fitting; excitation 285 nm, emission above 320 nm; 20 °C; 50 mM Tris-HCl (pH 8.0), 50 mM NaCl, 10 mM DTT; constants calculated from rate constants; Kov is an apparent dissociation constant for a two-step binding process
His680 = His680 (UniProt position 680, DTKAGHGAGKP); assay: other (titration of the catalytic histidine; the title of ref 41 indicates inhibitor binding); conditions: cited from earlier work
[4] = target: GmPOPB-S577A (inactive mutant) (Galerina marginata) (UniProt H2E7Q8); assay: ITC; 200 uM peptide in the syringe titrated into 20 uM protein in the cell; 20 °C; 50 mM Tris (pH 8.0), 50 mM NaCl, 10 mM DTT; single-site model, n fixed at 1.0
porcine POP = conditions: cited from earlier work
GmPOPB [5] = target: T1, GmPOPB (Galerina marginata, UniProt H2E7Q8); assay: Global fitting by numerical integration of quenched-flow and stopped-flow data; assay type: biochemical; conditions: read-out: k–5 (tail association), Kintek best-fit
T1 construct: His tag (TEV-cleavable) (cleaved yes); made in house; host or cells: E. coli BL21(DE3)

GmPOPB [6] = target: T1, GmPOPB; assay: biochemical; conditions: Figure S10, fit to Equation S4; activity normalized to no inhibitor (100%) and 50 µM recognition sequence (0%)
[7] = target: T2, Prolyl oligopeptidase B from Galerina marginata (GmPOPB) (Galerina marginata, UniProt H2E7Q8 1-730); assay: stopped-flow tryptophan fluorescence; 2 μM GmPOPB, peptide tail 0.5-20 μM, 20 °C, excitation 285 nm, emission above 320 nm; analytical fitting (replots of kobs and of amplitudes against tail concentration); conditions: both partners purified
T2 sequence (looked up): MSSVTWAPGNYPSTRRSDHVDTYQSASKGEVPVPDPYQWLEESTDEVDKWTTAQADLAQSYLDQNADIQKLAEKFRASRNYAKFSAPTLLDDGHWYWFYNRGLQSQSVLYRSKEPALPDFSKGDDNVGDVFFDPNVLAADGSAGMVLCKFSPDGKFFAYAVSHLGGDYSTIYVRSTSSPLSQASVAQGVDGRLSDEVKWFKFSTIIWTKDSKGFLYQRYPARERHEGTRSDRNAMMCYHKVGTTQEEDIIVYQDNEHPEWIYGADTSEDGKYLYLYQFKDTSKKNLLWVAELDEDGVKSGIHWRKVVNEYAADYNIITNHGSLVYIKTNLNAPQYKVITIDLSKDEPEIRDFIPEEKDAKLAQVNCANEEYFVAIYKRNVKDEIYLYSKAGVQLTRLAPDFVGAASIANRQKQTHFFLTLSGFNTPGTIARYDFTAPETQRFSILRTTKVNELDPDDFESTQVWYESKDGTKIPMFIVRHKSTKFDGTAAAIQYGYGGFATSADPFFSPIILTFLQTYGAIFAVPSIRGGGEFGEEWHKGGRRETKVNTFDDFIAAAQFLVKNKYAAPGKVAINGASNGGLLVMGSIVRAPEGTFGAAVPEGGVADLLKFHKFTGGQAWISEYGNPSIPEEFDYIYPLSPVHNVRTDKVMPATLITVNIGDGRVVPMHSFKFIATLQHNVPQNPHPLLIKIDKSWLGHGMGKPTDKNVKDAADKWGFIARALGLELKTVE

[8] = target: T2, Prolyl oligopeptidase B from Galerina …; assay: stopped-flow tryptophan fluorescence; 2 μM GmPOPB, peptide tail 0.5-20 μM, 20 °C; this experiment fitted individually by numerical integration (KinTek Global Explorer, Fitspace boundaries), no constraints; conditions: both partners purified
[9] = target: T2, Prolyl oligopeptidase B from Galerina …; assay: stopped-flow tryptophan fluorescence; 2 μM GmPOPB, peptide tail 0.5-20 μM, 20 °C, excitation 285 nm, emission above 320 nm; analytical fitting (replots of kobs and of amplitudes against tail concentration); conditions: both partners purified; remark: listed apart in the source
[10] = target: T3, Prolyl oligopeptidase B from Galerina marginata (GmPOPB) (Galerina marginata, UniProt H2E7Q8 1-730); assay: stopped-flow tryptophan fluorescence; analytical fitting; excitation 285 nm, emission above 320 nm; 20 °C; 50 mM Tris-HCl (pH 8.0), 50 mM NaCl, 10 mM DTT; constants calculated from rate constants; Kov is an apparent dissociation constant for a two-step binding process; conditions: both partners purified
T3 sequence (looked up): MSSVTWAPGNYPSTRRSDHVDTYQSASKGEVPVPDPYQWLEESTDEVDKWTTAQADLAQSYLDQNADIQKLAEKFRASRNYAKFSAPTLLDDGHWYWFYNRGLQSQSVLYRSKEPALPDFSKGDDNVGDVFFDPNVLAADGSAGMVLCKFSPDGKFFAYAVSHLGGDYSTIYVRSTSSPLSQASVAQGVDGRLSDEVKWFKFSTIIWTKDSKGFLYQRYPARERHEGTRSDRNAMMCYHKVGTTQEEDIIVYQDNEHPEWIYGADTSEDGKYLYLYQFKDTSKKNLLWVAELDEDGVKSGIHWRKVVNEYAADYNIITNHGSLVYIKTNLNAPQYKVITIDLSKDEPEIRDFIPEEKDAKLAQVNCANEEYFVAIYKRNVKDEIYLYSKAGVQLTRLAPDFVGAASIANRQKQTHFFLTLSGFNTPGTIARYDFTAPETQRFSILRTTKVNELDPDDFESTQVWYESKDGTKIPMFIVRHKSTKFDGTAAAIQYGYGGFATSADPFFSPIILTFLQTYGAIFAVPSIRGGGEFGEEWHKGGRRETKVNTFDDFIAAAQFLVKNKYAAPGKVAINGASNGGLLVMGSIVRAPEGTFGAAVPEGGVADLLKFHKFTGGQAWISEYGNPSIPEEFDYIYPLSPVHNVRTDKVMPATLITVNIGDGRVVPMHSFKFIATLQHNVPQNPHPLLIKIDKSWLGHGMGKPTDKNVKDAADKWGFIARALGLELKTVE

[11] = target: T3, Prolyl oligopeptidase B from Galerina …; assay: stopped-flow tryptophan fluorescence; global fitting by numerical integration (KinTek Global Kinetic Explorer) of stopped-flow binding and quenched-flow turnover data together; 20 °C; k1/k-1 and k5/k-5 linked by the ITC Kd values; k4 and k-4 fixed at best-fit values; conditions: both partners purified
[12] = target: T3, Prolyl oligopeptidase B from Galerina …; assay: ITC; 200 uM peptide in the syringe titrated into 20 uM protein in the cell; 20 °C; 50 mM Tris (pH 8.0), 50 mM NaCl, 10 mM DTT; single-site model, n fixed at 1.0; conditions: both partners purified
[13] = target: T3, Prolyl oligopeptidase B from Galerina …; assay: as above; conditions: both partners purified; remark: listed apart in the source
[14] = other: 20 °C, 50 mM Tris-HCl (pH 8.0), standard error, 20.0 °C

Sequence of 25mer peptide substrate of GmPOPB (core plus peptide tail of the amanitin precursor) (A0A067SLB9 11-35 limits assumed): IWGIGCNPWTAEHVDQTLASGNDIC

**Q.** For GmPOPB (Galerina marginata CBS 339.88), which Km [1, 14] is on record?
**A.** 55 µM and 55.4 ± 18.6 µM

**Q.** And the kcat [1, 14]?
**A.** 0.23 ± 0.03 s^–1

**Q.** And the Km ([1]; other: H2O, 37 °C, 50 mM Tris (pH 8.0), LC–MS, 37.0 °C)?
**A.** 51 µM

**Q.** With “eight-amino acid cyclic peptide product of the GmPOPB macrocyclization reaction” as the molecule, how does the k3 (slower step of the two-step binding, direction of release of the cyclic peptide) [2] read?
**A.** 12.3 s^–1

**Q.** And the k4 (fast bimolecular step of the two-step binding, dissociation of the cyclic peptide) [2]?
**A.** 100 s^–1

**Q.** What about the k-3 (slower step of the two-step binding, direction of binding of the cyclic peptide) [2] of the same molecule?
**A.** 0.78 μM^–1 s^–1

**Q.** And the k-4 (fast bimolecular step of the two-step binding, association of the cyclic peptide) [2]?
**A.** 60 μM^–1 s^–1

**Q.** And the Kd [3]?
**A.** 99.2 nM

**Q.** With “Prolyl oligopeptidase (prolyl endopeptidase, POP) (Sus scrofa)” as the molecule, how does the pKa (His680) read?
**A.** 6.25

**Q.** With “25mer peptide substrate of GmPOPB (core plus peptide tail of the amanitin precursor)” as the molecule, how does the stoichiometry N [4] read?
**A.** 1

**Q.** Which “activation energy, porcine POP” value (porcine POP; depending on the substrate used) does the source give for “porcine POP: Sus scrofa (porcine) prolyl oligopeptidase” here?
**A.** 14 to 20 kcal mol^–1

**Q.** What about the “pKa (first), porcine POP” value (porcine POP; dipeptide substrate) of the same molecule?
**A.** 5

**Q.** What about the “pKa (second), porcine POP” value (porcine POP; dipeptide substrate) of the same molecule?
**A.** 7

**Q.** And the “pKa (third), porcine POP” value (porcine POP; dipeptide substrate)?
**A.** 9.5

**Q.** And the “pKa of catalytic His680, porcine POP” value (porcine POP; titration of the catalytic histidine)?
**A.** 6.25

**Q.** What does the source list for WTAEHVDQTLASGNDIC [peptide tail]?
**A.** kon (GmPOPB [5]): 3.22e+06 ± 10000 M⁻¹ s⁻¹; IC50 (GmPOPB [6]): 320 ± 100 nM

**Q.** Which Kd [7] does the source give for WTAEHVDQTLASGNDIC [Peptide tail (WTAEHVDQTLASGNDIC)] here?
**A.** 322 ± 37.5 nM

**Q.** What about the koff [8] of the same molecule?
**A.** 0.58 s⁻¹

**Q.** And the kon [8]?
**A.** 4.69e+06 M⁻¹ s⁻¹

**Q.** And the koff [9]?
**A.** 3.54 s⁻¹

**Q.** And the kon [9]?
**A.** 4.84e+06 M⁻¹ s⁻¹

**Q.** With WTAEHVDQTLASGNDIC [peptide tail (17-amino acid C-terminal recognition sequence)] as the molecule, how does the Kd [10] read?
**A.** 731 nM

**Q.** What about the koff [11] of the same molecule?
**A.** 1.44 s⁻¹

**Q.** What about the Kd [12] of the same molecule?
**A.** 442 nM

**Q.** And the “stoichiometry N” value [13]?
**A.** ~1

From publication PMC5397884 (Biochemistry, 2017)
